Data taken from article PMC12152508, “Altering 15‐Lipoxygenases to 18‐Lipoxygenases and Their Application to the Production of 5,18‐Dihydroxyeicosapentaenoic Acids” (Biotechnology and Bioengineering, 2025).

What was measured:
[1] = substrate: CC/C=C\C/C=C\C/C=C\C/C=C\C/C=C\CCCC(=O)O; experiment: purified protein; assay type: biochemical, Archangium violaceum; settings: 50 mM HEPES pH 8.5, 20°C
[2] = substrate: CC/C=C\C/C=C\C/C=C\C/C=C\C/C=C\CCCC(=O)O; experiment: purified protein; assay type: biochemical, Sorangium cellulosum; settings: 50 mM HEPES pH 8.0, 20°C

B1: 15S-LOX from Archangium violaceum (Archangium violaceum Cb vi76; L429W/L430M/L575M) (protein)
chain: MRSIPSLPQNDSPAQQELRLATLTQERQVYAYNFDSRLSPLGIAAQVPRQDNFSFVWLDGVATTGLQLLGNVLAIGAKLFDNGEAIQNDAGLSELELRRVEGTYRELTDGFSRLSDRTSRLHQAPRSPAVTLIADVIERPRTLLKAAGQKLEETAGVAIVSELATQAALDAPAIGQDILDLIDTLLKKLLSEAGDLFLKYLGLYGKAASLDNYTAQFSLLQPPSVASNYETDLIFARMRLAGPNPALLQGIAALPEKFPVTDAQYQSVMGSQDTLARAGQEGRLYLLDYAVFQGIPTGQTSGGQKYIEAPLALFAVPAANQADRKLRAVAIQCSQTPGRSNPIFTPADGTSWSLARLHVQVADGNYHELIAHLGLTHLILEEFTLSTHRQLAPQHPLYLLLTPHFQGTLAINNAAETSLIAPGGPVDQWMAGEIKASTQVSIQAVANQSINQSFLPRALAARGVDDASKLPDYPYRDDALLLWNDIRAWVSDYLAIYYNDDAAVRSDYELQAWVTELASPDAGKLKDVTEGGGGIQTFEYLVDLTTYIIFTASVQHAAVNFPQRTVMSYTPALPMAAYAPAPTSVEELPPSTELTHLPPLQMAFLQQAVTFGLGNVYFTRLGGYDTYLREPWFADARVWPALEVFQKRLRATEREIGQRNLSRIPYETLLPTAIPQSINI
notes: expressed from pET-28a(+) in E. coli C2566, His-Trap purified
[1]; products 15S- and 18S-HpEPEs
  Km: 221.3 µM
  kcat: 118 s⁻¹
  kcat/Km: 530000 M⁻¹ s⁻¹

B2: 15S-LOX from Archangium violaceum (Archangium violaceum Cb vi76; L429W) (protein)
chain: MRSIPSLPQNDSPAQQELRLATLTQERQVYAYNFDSRLSPLGIAAQVPRQDNFSFVWLDGVATTGLQLLGNVLAIGAKLFDNGEAIQNDAGLSELELRRVEGTYRELTDGFSRLSDRTSRLHQAPRSPAVTLIADVIERPRTLLKAAGQKLEETAGVAIVSELATQAALDAPAIGQDILDLIDTLLKKLLSEAGDLFLKYLGLYGKAASLDNYTAQFSLLQPPSVASNYETDLIFARMRLAGPNPALLQGIAALPEKFPVTDAQYQSVMGSQDTLARAGQEGRLYLLDYAVFQGIPTGQTSGGQKYIEAPLALFAVPAANQADRKLRAVAIQCSQTPGRSNPIFTPADGTSWSLARLHVQVADGNYHELIAHLGLTHLILEEFTLSTHRQLAPQHPLYLLLTPHFQGTLAINNAAETSLIAPGGPVDQWLAGEIKASTQVSIQAVANQSINQSFLPRALAARGVDDASKLPDYPYRDDALLLWNDIRAWVSDYLAIYYNDDAAVRSDYELQAWVTELASPDAGKLKDVTEGGGGIQTFEYLVDLTTYIIFTASVQHAAVNFPQRTVMSYTPALPLAAYAPAPTSVEELPPSTELTHLPPLQMAFLQQAVTFGLGNVYFTRLGGYDTYLREPWFADARVWPALEVFQKRLRATEREIGQRNLSRIPYETLLPTAIPQSINI
notes: as for B1
[1]; products 15S- and 18S-HpEPEs
  Km: 35.6 µM
  kcat: 51.8 s⁻¹
  kcat/Km: 1.45e+06 M⁻¹ s⁻¹

B3: 15S-LOX from Archangium violaceum (Archangium violaceum Cb vi76) (protein)
chain: MRSIPSLPQNDSPAQQELRLATLTQERQVYAYNFDSRLSPLGIAAQVPRQDNFSFVWLDGVATTGLQLLGNVLAIGAKLFDNGEAIQNDAGLSELELRRVEGTYRELTDGFSRLSDRTSRLHQAPRSPAVTLIADVIERPRTLLKAAGQKLEETAGVAIVSELATQAALDAPAIGQDILDLIDTLLKKLLSEAGDLFLKYLGLYGKAASLDNYTAQFSLLQPPSVASNYETDLIFARMRLAGPNPALLQGIAALPEKFPVTDAQYQSVMGSQDTLARAGQEGRLYLLDYAVFQGIPTGQTSGGQKYIEAPLALFAVPAANQADRKLRAVAIQCSQTPGRSNPIFTPADGTSWSLARLHVQVADGNYHELIAHLGLTHLILEEFTLSTHRQLAPQHPLYLLLTPHFQGTLAINNAAETSLIAPGGPVDQLLAGEIKASTQVSIQAVANQSINQSFLPRALAARGVDDASKLPDYPYRDDALLLWNDIRAWVSDYLAIYYNDDAAVRSDYELQAWVTELASPDAGKLKDVTEGGGGIQTFEYLVDLTTYIIFTASVQHAAVNFPQRTVMSYTPALPLAAYAPAPTSVEELPPSTELTHLPPLQMAFLQQAVTFGLGNVYFTRLGGYDTYLREPWFADARVWPALEVFQKRLRATEREIGQRNLSRIPYETLLPTAIPQSINI
notes: as for B1
[1]; product 15S-HpEPE
  Km: 40.7 µM
  kcat: 61.4 s⁻¹
  kcat/Km: 1.51e+06 M⁻¹ s⁻¹

B4: 15S-LOX from Archangium violaceum (Archangium violaceum Cb vi76; L429W/L430M) (protein)
chain: MRSIPSLPQNDSPAQQELRLATLTQERQVYAYNFDSRLSPLGIAAQVPRQDNFSFVWLDGVATTGLQLLGNVLAIGAKLFDNGEAIQNDAGLSELELRRVEGTYRELTDGFSRLSDRTSRLHQAPRSPAVTLIADVIERPRTLLKAAGQKLEETAGVAIVSELATQAALDAPAIGQDILDLIDTLLKKLLSEAGDLFLKYLGLYGKAASLDNYTAQFSLLQPPSVASNYETDLIFARMRLAGPNPALLQGIAALPEKFPVTDAQYQSVMGSQDTLARAGQEGRLYLLDYAVFQGIPTGQTSGGQKYIEAPLALFAVPAANQADRKLRAVAIQCSQTPGRSNPIFTPADGTSWSLARLHVQVADGNYHELIAHLGLTHLILEEFTLSTHRQLAPQHPLYLLLTPHFQGTLAINNAAETSLIAPGGPVDQWMAGEIKASTQVSIQAVANQSINQSFLPRALAARGVDDASKLPDYPYRDDALLLWNDIRAWVSDYLAIYYNDDAAVRSDYELQAWVTELASPDAGKLKDVTEGGGGIQTFEYLVDLTTYIIFTASVQHAAVNFPQRTVMSYTPALPLAAYAPAPTSVEELPPSTELTHLPPLQMAFLQQAVTFGLGNVYFTRLGGYDTYLREPWFADARVWPALEVFQKRLRATEREIGQRNLSRIPYETLLPTAIPQSINI
notes: as for B1
[1]; products 15S- and 18S-HpEPEs
  Km: 57.2 µM
  kcat: 48.7 s⁻¹
  kcat/Km: 850000 M⁻¹ s⁻¹

B5: 15R-LOX from Sorangium cellulosum (Sorangium cellulosum) (protein)
chain: MSNPSLPQNDSPAEQQQRKSELARAQQTYVYDHDTRLSPLGVAQSVPNGQGFAPILVGSAALVILDLVGNVVAKASKLVGSDGSLRSPKGAPLDDATSARIQGVLHDLKQRHRELTLVLTPLHGEPERAPAPPPRAPAVALVEGVAQKFVTTAENRAMESVLGATNLSTKNVGDIIKSLLDTLLSAAGKLLLDLVGMYGQATSVYDYVSEFQTFRLPEIASVYQDDAIFAWMRVAGPNPLVLKRVASPGASFPVTDAQYRSVMGEGDSLASAGKEGRLYLADYKALSQLVPGTAPDQQKYVEAPLALFAVPAAGAPSRLLRPVAIQCAQAPGAASPIFTPSDGVAWEVAKLHVQVADGNFHELISHLGQTHLVLEAFAMATPRQLAPEHPVNVLLTPHFQGTLAINNAAEADLIAPGGPVDNLLAGTIASSTQLAVDAVLSYSVNQQFLPVALAQRGVDDPSTLPSYPYRDDATLLWGAIHTWVSRYLAVYYTSDADVLGDYELQHWIAELSSPSGCGLKDIGEDGAIRTVAYLADLLTHVIFTASAQHAAVNFPQSSLMSFTPALPLAAYAPAPSITAGLPPSEIFQHLPPLQQALLQINVMMLLGGVYYSRLGDYDRNIPGAYFTDARVREPLEAFQRELMEIEATIGKRNLQRFPYVVLLPSQIPQSINI
[2]; product 15R-HpEPE
  Km: 41.9 µM
  kcat: 68 s⁻¹
  kcat/Km: 1.62e+06 M⁻¹ s⁻¹

B6: 15R-LOX from Sorangium cellulosum (Sorangium cellulosum; L423W) (protein)
chain: MSNPSLPQNDSPAEQQQRKSELARAQQTYVYDHDTRLSPLGVAQSVPNGQGFAPILVGSAALVILDLVGNVVAKASKLVGSDGSLRSPKGAPLDDATSARIQGVLHDLKQRHRELTLVLTPLHGEPERAPAPPPRAPAVALVEGVAQKFVTTAENRAMESVLGATNLSTKNVGDIIKSLLDTLLSAAGKLLLDLVGMYGQATSVYDYVSEFQTFRLPEIASVYQDDAIFAWMRVAGPNPLVLKRVASPGASFPVTDAQYRSVMGEGDSLASAGKEGRLYLADYKALSQLVPGTAPDQQKYVEAPLALFAVPAAGAPSRLLRPVAIQCAQAPGAASPIFTPSDGVAWEVAKLHVQVADGNFHELISHLGQTHLVLEAFAMATPRQLAPEHPVNVLLTPHFQGTLAINNAAEADLIAPGGPVDNWLAGTIASSTQLAVDAVLSYSVNQQFLPVALAQRGVDDPSTLPSYPYRDDATLLWGAIHTWVSRYLAVYYTSDADVLGDYELQHWIAELSSPSGCGLKDIGEDGAIRTVAYLADLLTHVIFTASAQHAAVNFPQSSLMSFTPALPLAAYAPAPSITAGLPPSEIFQHLPPLQQALLQINVMMLLGGVYYSRLGDYDRNIPGAYFTDARVREPLEAFQRELMEIEATIGKRNLQRFPYVVLLPSQIPQSINI
notes: as for B1
[2]; products 15R- and 18R-HpEPEs
  Km: 69.8 µM
  kcat: 105 s⁻¹
  kcat/Km: 1.5e+06 M⁻¹ s⁻¹

B7: 15R-LOX from Sorangium cellulosum (Sorangium cellulosum; L423W/L424M) (protein)
chain: MSNPSLPQNDSPAEQQQRKSELARAQQTYVYDHDTRLSPLGVAQSVPNGQGFAPILVGSAALVILDLVGNVVAKASKLVGSDGSLRSPKGAPLDDATSARIQGVLHDLKQRHRELTLVLTPLHGEPERAPAPPPRAPAVALVEGVAQKFVTTAENRAMESVLGATNLSTKNVGDIIKSLLDTLLSAAGKLLLDLVGMYGQATSVYDYVSEFQTFRLPEIASVYQDDAIFAWMRVAGPNPLVLKRVASPGASFPVTDAQYRSVMGEGDSLASAGKEGRLYLADYKALSQLVPGTAPDQQKYVEAPLALFAVPAAGAPSRLLRPVAIQCAQAPGAASPIFTPSDGVAWEVAKLHVQVADGNFHELISHLGQTHLVLEAFAMATPRQLAPEHPVNVLLTPHFQGTLAINNAAEADLIAPGGPVDNWMAGTIASSTQLAVDAVLSYSVNQQFLPVALAQRGVDDPSTLPSYPYRDDATLLWGAIHTWVSRYLAVYYTSDADVLGDYELQHWIAELSSPSGCGLKDIGEDGAIRTVAYLADLLTHVIFTASAQHAAVNFPQSSLMSFTPALPLAAYAPAPSITAGLPPSEIFQHLPPLQQALLQINVMMLLGGVYYSRLGDYDRNIPGAYFTDARVREPLEAFQRELMEIEATIGKRNLQRFPYVVLLPSQIPQSINI
notes: as for B1
[2]; products 15R- and 18R-HpEPEs
  Km: 43.3 µM
  kcat: 22.7 s⁻¹
  kcat/Km: 520000 M⁻¹ s⁻¹

B8: 15R-LOX from Sorangium cellulosum (Sorangium cellulosum; L423W/L424M/L568M) (protein)
chain: MSNPSLPQNDSPAEQQQRKSELARAQQTYVYDHDTRLSPLGVAQSVPNGQGFAPILVGSAALVILDLVGNVVAKASKLVGSDGSLRSPKGAPLDDATSARIQGVLHDLKQRHRELTLVLTPLHGEPERAPAPPPRAPAVALVEGVAQKFVTTAENRAMESVLGATNLSTKNVGDIIKSLLDTLLSAAGKLLLDLVGMYGQATSVYDYVSEFQTFRLPEIASVYQDDAIFAWMRVAGPNPLVLKRVASPGASFPVTDAQYRSVMGEGDSLASAGKEGRLYLADYKALSQLVPGTAPDQQKYVEAPLALFAVPAAGAPSRLLRPVAIQCAQAPGAASPIFTPSDGVAWEVAKLHVQVADGNFHELISHLGQTHLVLEAFAMATPRQLAPEHPVNVLLTPHFQGTLAINNAAEADLIAPGGPVDNWMAGTIASSTQLAVDAVLSYSVNQQFLPVALAQRGVDDPSTLPSYPYRDDATLLWGAIHTWVSRYLAVYYTSDADVLGDYELQHWIAELSSPSGCGLKDIGEDGAIRTVAYLADLLTHVIFTASAQHAAVNFPQSSLMSFTPALPMAAYAPAPSITAGLPPSEIFQHLPPLQQALLQINVMMLLGGVYYSRLGDYDRNIPGAYFTDARVREPLEAFQRELMEIEATIGKRNLQRFPYVVLLPSQIPQSINI
notes: as for B1
[2]; products 15R- and 18R-HpEPEs
  Km: 253.7 µM
  kcat: 90.8 s⁻¹
  kcat/Km: 360000 M⁻¹ s⁻¹
